# Patent US20250304662A1 (published 2025)
# Like-named read-outs stand apart in the source and are kept apart here.
# T1: Kp FimHLD
# T1 chain: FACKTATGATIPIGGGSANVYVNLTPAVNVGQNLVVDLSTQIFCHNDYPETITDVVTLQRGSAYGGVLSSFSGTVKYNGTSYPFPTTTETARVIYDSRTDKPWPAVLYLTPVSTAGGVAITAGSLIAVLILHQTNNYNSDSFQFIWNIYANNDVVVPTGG
# T2: Ec FmlHLD
# T2 chain: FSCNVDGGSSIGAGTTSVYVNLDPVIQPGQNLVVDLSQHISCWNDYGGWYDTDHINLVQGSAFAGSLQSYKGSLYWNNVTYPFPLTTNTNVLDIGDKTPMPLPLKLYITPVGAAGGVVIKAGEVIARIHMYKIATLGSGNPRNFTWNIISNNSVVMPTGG
# T3: FimGnteH (E. coli, UniProt P08190 24-37)
# T3 sequence (P08190 whole entry, looked up): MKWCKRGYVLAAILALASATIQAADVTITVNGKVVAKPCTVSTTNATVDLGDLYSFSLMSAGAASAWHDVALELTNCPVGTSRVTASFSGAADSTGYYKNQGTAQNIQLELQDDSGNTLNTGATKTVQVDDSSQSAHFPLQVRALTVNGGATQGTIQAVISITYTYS
# T4: FimGNTEH (E. coli, UniProt P08190 24-37)
# T4 sequence (P08190 whole entry, looked up): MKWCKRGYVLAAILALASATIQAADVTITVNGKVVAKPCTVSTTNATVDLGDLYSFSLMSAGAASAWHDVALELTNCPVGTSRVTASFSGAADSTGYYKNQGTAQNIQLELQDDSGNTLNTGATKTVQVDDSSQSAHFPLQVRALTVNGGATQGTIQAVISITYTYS
# T5: E. coli FimH lectin domain truncate (UT189) (E. coli (UT189))
# T5 chain: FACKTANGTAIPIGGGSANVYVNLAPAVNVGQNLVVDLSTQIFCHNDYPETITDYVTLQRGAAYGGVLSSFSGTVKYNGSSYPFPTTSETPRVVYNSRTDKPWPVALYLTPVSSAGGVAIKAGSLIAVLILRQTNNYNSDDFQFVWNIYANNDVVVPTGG
# Experiments:
# Ec FimHLD = test: ELISA
# Kp FimHLD = target: T1, Kp FimHLD; test: ELISA
# Ec FmlHLD = target: T2, Ec FmlHLD; test: ELISA
# FimGnteH [1] = target: T3, FimGnteH; test: BLI
# FimGNTEH [2] = target: T4, FimGNTEH; test: BLI
# [3] = target: T5, E. coli FimH lectin domain truncate …; test: BLI
# [4] = target: T5, E. coli FimH lectin domain truncate …; test: BLI
# [5] = target: T5, E. coli FimH lectin domain truncate …; test: BLI
# [6] = target: T5, E. coli FimH lectin domain truncate …; test: BLI
# [7] = target: T5, E. coli FimH lectin domain truncate …; test: BLI
# Kp1 2G02 = test: BLI
# Kp1 1A02 = test: BLI
# Kp1 1C01 = test: BLI
# Ec1 H9 = test: BLI
# Ec1 C12 = test: BLI
# Kp1 2E02 = test: BLI
# Kp1 2E08 = test: BLI
# Kp1 2D07 = test: BLI
# Kp1 1B03 = test: BLI
# Kp1 2H07 = test: BLI
Binder,EC50 (Ec FimHLD) [µg/mL],EC50 (Kp FimHLD) [µg/mL],EC50 (Ec FmlHLD) [µg/mL],also measured
"Kp 1E07 (antibody, V domains shown) VH: EVQLQQPGAELVKPGASVKLSCKASGYTFTSYWMHWVKQRPGQGLEWIGLIHPNSGSTYYNEKFKNKATLTVDKSSSTAYMQLSSLTSEDSAVYYCARWDDSYWYFKVWGTGTTVTVSS VL: QIVLTQSPAILSASPGEKVTMTCRASSSVSYMHWYQQKPGSSPKPWIYATSNLASGVPARFSGSGSGTSYSLTISRVEAEDAATYYCQQWSSNPYTFGGGTKLEIKR",0.0094,0.0115,0.0117,–
"Kp2 2C07 (Fab, V domains shown) VH: EVKLVESGEGLVKPGGSLKLSCAASGFTFSSYAMSWVRQTPEKRLDWVAYISSGGDHIYYADTVKGRFTISRDNARNTLYLQMSSLKSEDTAMYYCTRDTGYYVSRYFDVWGTGTTVTVSS VL: DIVMTQSQKFMSTSVGDRVSVTCKASQNVVTNVAWYQQKSGQSPKVVIYSASFRSSGVPDRFTGSGSGTDFTLTISNVQSEDLAEYFCHQYNSHPLTFGGGTKLEIKR",–,–,–,Kd (FimGnteH [1]): 9.9 nM; Kd (FimGNTEH [2]): 9.9 nM
"Kp2 2C07 Fab (Fab, V domains shown) VH: EVKLVESGEGLVKPGGSLKLSCAASGFTFSSYAMSWVRQTPEKRLDWVAYISSGGDHIYYADTVKGRFTISRDNARNTLYLQMSSLKSEDTAMYYCTRDTGYYVSRYFDVWGTGTTVTVSS VL: DIVMTQSQKFMSTSVGDRVSVTCKASQNVVTNVAWYQQKSGQSPKVVIYSASFRSSGVPDRFTGSGSGTDFTLTISNVQSEDLAEYFCHQYNSHPLTFGGGTKLEIKR",–,–,–,Kd [3]: 2.8 nM; Kd [4]: 2.8 nM
"Kp 2H07 (antibody, V domains shown) VH: EVQLQQSGPVLVKPGPSVNISCKASGFTFTDYYIHWVKQSHGKSLEWIGLVYPYSGGTYYNQKFKGKATLTVDASSSTAYMELGSLTSEDSAVYYCARLGDNFYYFDYWGQGTTLTVSS VL: QIVLTQSPTLMAASPGEKVTITCSVSSSISSSNLHWYQQKSETSPKPWIYGTSNLASGVPVRFSGSGSGTSYSLTISSMEAEDAATYYCQQWRSYPYTFGGGTKLEIKR",0.0104,0.0137,2.72,–
"Kp 2D10 (antibody, V domains shown) VH: EVQLQQSGAELVKPGASVKLSCKASGYTFTTYWMHWMKQWPGQGLEWIGLIHPNSGSTYYNEKFKSKATLTVDKSSSTAYMQLSSLTSEDSAVYYCARFEELWGGYWYFDVWGTGTTVTVSS VL: QIVLTQSPALMAASPGEKVTITCSVSSSISSSNLHWYQQKSETSPKPWIYGTSNLASGVPVRFSGSGSGTSYSLTISSMEAEDAATYYCQQWSSYPYTFGGGTKLEIKR",0.0119,0.0109,10.1,–
"Ec H9 (antibody, V domains shown) VH: EVQLQQSGPVLVKPGPSVKISCKASGFTFTDYFVHWVKQSHGKSLEWIGLVSPYNGGTYYNQQFKGKATLTVDTSSSTAYMDLNSLTSEDSAVYYCARLLRGYWYFDVWGTGTTVTVSS VL: QIVLTQSPALMAASPGEKVTITCSVSSSISSSTLHWYQQKSETSPKPWIYGTSNLASGVPVRFGGSGSGTSYSLTISSMEAEDAATYYCQQWSTYPYTFGGGTKLEIKR",0.0301,0.0243,0.015,–
"Ec1 F7 Fab (Fab, V domains shown) VH: EVQLQQPGPVLVKPGPSVKISCKASGFTFTDYFIHWVKQSHGKSLEWIGLVSPYNGGTYYNQQFKGKATLTVDTSSSTAYMDLNSLTSEDSAVYYCTRLLRGYWYFDVWGTGTTVTVSS VL: QIVLTQSPALMAASPGEKVTITCSVSSSIGSSNLHWYQQKSETSPKPWIYGTSNLASGVPVRFSGSGSGTSYSLTISSMEAEDAATYYCQQWSTYPYTFGGGTKLEIKR",–,–,–,koff [5]: 2.2e-05 s⁻¹; koff [6]: 2.2e-05 s⁻¹
"Kp1 2H04 Fab (Fab, V domains shown) VH: EVQLQQSGAELVKPGASVKLSCKASGYTFTSYWMHWVKQRPGQGLEWIGLIHPNSSSTYYNEKFKTRATLTVDKSSSTAYMQLSSLTSEDSAVYYCARLGYGNSYWYFDVWGTGTTVTVSS VL: QIVLTQSPALMAASPGEKVTITCSVSSSISSSNLHWYQQKSETSPKPWIYGTSNLASGVPIRFSGSGSGTSYSLTISSLEAEDAATYYCQQWRSYPWTFGGGTKLEIKR",–,–,–,koff [5]: 2.1e-05 s⁻¹; koff [7]: 2.1e-05 s⁻¹
"Kp1 1A02 (antibody, V domains shown) VH: EVQLQQSGPVLVKPGPSMKISCKASGFTFTDYYIHWVRQSHGKSLEWIGLVSPYNGGTYYNQKFKGKATLTVDSSSSTAYMELSSLTSEDSAVYYCARLGYYGDWYYFDYWGQGTPLTVSS VL: QIVLTQSPALMATSPGEKVTITCSVSSSISSSNLNWYQQKSETSPKPWIYGTSNLASGVPVRFSGSGSGTSYSLTISSMEAEDAATYYCQQWSSYPYTFGGGTKLEIKR",0.0144,0.0185,2.1,–
"Ec1 F7 (Fab, V domains shown) VH: EVQLQQPGPVLVKPGPSVKISCKASGFTFTDYFIHWVKQSHGKSLEWIGLVSPYNGGTYYNQQFKGKATLTVDTSSSTAYMDLNSLTSEDSAVYYCTRLLRGYWYFDVWGTGTTVTVSS VL: QIVLTQSPALMAASPGEKVTITCSVSSSIGSSNLHWYQQKSETSPKPWIYGTSNLASGVPVRFSGSGSGTSYSLTISSMEAEDAATYYCQQWSTYPYTFGGGTKLEIKR",–,–,–,Kd (FimGnteH [1]): 0.7 nM; Kd (FimGNTEH [2]): 0.7 nM
"Kp1 2H04 (antibody, V domains shown) VH: EVQLQQSGAELVKPGASVKLSCKASGYTFTSYWMHWVKQRPGQGLEWIGLIHPNSSSTYYNEKFKTRATLTVDKSSSTAYMQLSSLTSEDSAVYYCARLGYGNSYWYFDVWGTGTTVTVSS VL: QIVLTQSPALMAASPGEKVTITCSVSSSISSSNLHWYQQKSETSPKPWIYGTSNLASGVPIRFSGSGSGTSYSLTISSLEAEDAATYYCQQWRSYPWTFGGGTKLEIKR",0.0178,0.0096,0.0154,–
"Kp1 1B03 (antibody, V domains shown) VH: EVQLQQSGAELVKPGASVKLSCKASGYTFTSYWMHWVQQRPGQGLEWIGLIHPIGGGTHYNEKFKNKATLTVDKSSSTAYMQLSSLTSEDSAVYYCARLGTGPYYFDYWGQGTTLTVSS VL: QIVLTQSPALMAASPGEKVTITCSVSSSISSSTLDWYQQKSETSPKPWVYGTSNLASGVPVRFSGSGSGTSYSLTISSMEAEDAATYYCQQWSSYPWTFGGGTKLEIKR",0.0092,0.0125,3.06,–
FimLD (other) FACKTANGTAIPIGGGSANVYVNLAPAVNVGQNLVVDLSTQIFCHNDYPETITDYVTLQRGAAYGGVLSSFSGTVKYNGSSYPFPTTSETPRVVYNSRTDKPWPVALYLTPVSSAGGVAIKAGSLIAVLILRQTNNYNSDDFQFVWNIYANNDVVVPTGG,–,–,–,koff (Kp1 2G02): 1.3e-05 s⁻¹; Kd (Kp1 1A02): 0.7 nM; Kd (Kp1 1C01): 3.4 nM; Kd (Ec1 H9): 0.2 nM; Kd (Ec1 C12): 2.7 nM; Kd (Kp1 2E02): 0.4 nM; Kd (Kp1 2E08): 1 nM; Kd (Kp1 2D07): 1.5 nM; Kd (Kp1 1B03): 4.9 nM; Kd (Kp1 2H07): 1 nM
